Experimental data from patent US20230174670A1 (JIANGSU HENGRUI PHARMACEUTICALS, published 2023).

T1: human CD25 on cells (human, UniProt P01589 22-272)
T1 sequence (looked up): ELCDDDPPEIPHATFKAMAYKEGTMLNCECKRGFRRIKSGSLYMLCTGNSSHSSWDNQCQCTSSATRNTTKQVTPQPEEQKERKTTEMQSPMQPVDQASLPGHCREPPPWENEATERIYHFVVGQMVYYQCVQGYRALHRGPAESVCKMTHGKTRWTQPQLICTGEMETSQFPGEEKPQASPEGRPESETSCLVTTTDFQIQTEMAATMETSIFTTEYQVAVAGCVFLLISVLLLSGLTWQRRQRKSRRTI

T2: recombinant human CD25-His protein (human, UniProt P01589 22-213)
T2 construct: range 22-213; Purchased from Sino Biological Inc. Printed construct Met1-Cys213 includes the signal peptide
T2 sequence (looked up): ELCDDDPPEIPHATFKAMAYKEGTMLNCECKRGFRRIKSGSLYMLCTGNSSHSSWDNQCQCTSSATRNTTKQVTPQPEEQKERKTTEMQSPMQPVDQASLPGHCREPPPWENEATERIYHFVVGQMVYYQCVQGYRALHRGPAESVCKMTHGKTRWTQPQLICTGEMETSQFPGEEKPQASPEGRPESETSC

T3: recombinant monkey CD25-His protein (monkey (cynomolgus), UniProt H6WS54 1-213)
T3 construct: range 1-213; also called cynomolgus monkey (Cyno) CD25
T3 sequence: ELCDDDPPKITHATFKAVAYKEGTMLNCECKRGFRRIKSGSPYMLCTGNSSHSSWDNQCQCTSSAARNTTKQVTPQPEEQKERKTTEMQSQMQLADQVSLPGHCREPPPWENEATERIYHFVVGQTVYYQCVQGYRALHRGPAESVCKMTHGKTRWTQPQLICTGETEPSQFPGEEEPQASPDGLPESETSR


How the values were obtained:
human CD25 on cells [1] = molecular target: T1, human CD25 on cells; assay: cell-based or functional assay
[2] = molecular target: T2, recombinant human CD25-His protein; assay: ELISA, plate coated with human CD25-His
Protocol: (§1) The binding activity of the chimeric anti-CD25 antibody and the CD25 recombinant protein was assayed by ELISA. The 96-well plate was coated with human CD25-His/monkey CD25-His at a concentration of 1 g/mL at 50 μL/well. The unbound antigen was washed away with a washing solution (1×PBST). After washing, the plate was blocked with 1% BSA blocking solution prepared in 1×PBST at 37° C. for 1 h. After washing 3 times with the washing solution, the test chimeric antibodies at different dilution concentrations was added and incubated in an incubator at 37° C. for 1 h. After washing 3 times with the washing solution, 100 μL of goat anti-human IgG secondary antibody diluted at 1:5000 was added and incubated in an incubator at 37° C. for 0.5 h. The plate were washed, the TMB color developing solutions A and B were mixed in a 1:1 ratio for color development. After 15 min, the color development reaction was terminated with 1M hydrochloric acid, and the fluorescence value at 450 nm was measured.

[3] = molecular target: T3, recombinant monkey CD25-His protein; assay: ELISA, plate coated with monkey CD25-His
Protocol: as §1

human CD25 on cells [4] = molecular target: T1, human CD25 on cells; assay: flow cytometry on SU-DHL-1 cells
Protocol: Since the lymphoma cell line SU-DHL-1 highly expresses CD25, the binding of chimeric anti-CD25 antibodies to SU-DHL-1 cells was determined by flow cytometry. SU-DHL-1 cells in logarithmic growth phase were selected, collected, washed with PBS, and centrifuged. Each well was plated with 100 μL of 2×10⁵ cells and centrifuged at 400 g for 5 min. The test antibodies at different concentrations were added, incubated on ice for 1 h, washed with PBS, and centrifuged at 400 g for 5 min.

Binder | ADCC activity, Multiple of maximum fluorescence value (vs. IgG) (human CD25 on cells [1]) [fold] | EC50 [2] [pM] | EC50 [3] [pM] | EC50 (human CD25 on cells [4]) [pM]
PR006 (antibody, human IgG1, kappa, V domains shown) VH: EVQLVQSGAEVKKPGASVKVSCKASGYTFTGHWIEWVRQAPGQGLEWMGEILPGSNKINYNEKFKGRVTFTADTSTSTVYMELSSLRSEDTAVYYCAGGGGPHWPFAFWGQGTLVTVSS VL: DIVMTQSPDSLAVSLGERATINCRASESVNVHGAHLMHWYQQKPGQPPKLLIYAASILESGVPDRFSGSGSGTDFTLTISSLQAEDVAVYYCQQTIEDPRTFGGGTKVEIKR | 239 |  |  | 
PR058 (antibody, human IgG1, kappa, V domains shown) VH: EVQLVESGGGLVQPGGSLRLSCAASGFTFSSYAMSWVRQAPGKRLEWVATISEGGSYTYYPDNVKGRFTISRDNSKNTLYLQMNSLRAEDTAVYLCVRDNPWFAYWGQGTLVTVSS VL: DVLMTQSPLSLPVTPGEPASISCRSSQNIVHSNGNTYLEWFLQKPGQSPKLLIYKVSKRFSGVPDRFSGSGSGTDFTLKISRVEAEDVGVYYCFQGSHVPYTFGGGTKVEIKR | 386 |  |  | 
PR071 (antibody, human IgG1, kappa, V domains shown) VH: EVQLVQSGSELKKPGASVKVSCKASGYTFTDYYINWVRQAPGQGLEWMAWIFPGNGNTYFNENFKDRVTLTADKFSSTAYMELSSLRSEDTAVYYCARATYDHGGYWYFDVWGQGTTVTVSS VL: EIVLSQSPATLSLSPGERATLSCRASSSVSHIHWYQQKPGSSPKPWIYATSNLASGVPGRFSGSGSGTSYSLTVSRVEAEDAATYYCQHWNSFTFGGGTKVEIKR | 322 |  |  | 
PR031 (antibody, human IgG1, kappa, V domains shown) VH: EVQLVQSGAEVKKPGASVKVSCKASGYTFTTYDINWMKQHPGKGLEWIGWIYPRDGSTKYNAKFKGKATLTEDTSANTAYMELSSLRSEDTAVYYCARERIYDGSFDYWGQGTTVTVSS VL: DIVMTQSPDSLAVSLGERATINCKSSQRLFNSRDQKNYLAWYQQKPGQPPKLLIYGASTRESGVPDRFSGSGSGTDFTLTISSLQAEDVAVYYCQNDHIYPLTFGQGTKLEIKR | 192 |  |  | 
7G7B6 (antibody, V domains shown) VH: EVQLVESGGDLVQPRGSLKLSCAASGFTFSSYGMSWVRQTPDKRLELVATINGYGDTTYYPDSVKGRFTISRDNAKNTLYLQMSSLKSEDTAMYFCARDRDYGNSYYYALDYWGQGTSVTVSS VL: QIVLSQSPAILSASPGERVTMTCRASSSVSFMHWLQQKPGSSPKPWIYATSNLASGVSARFSGSGSGTSYSLTITRVEAEDAATYYCQQWSSNPPAFGGGTKLEIK | 13.3 |  |  | 
cAb001 (antibody, V domains shown, also called mAb001/cAb001) VH: QVTLKESGPGILQPSQTLSLTCSFSGFSLNTFGMGVGWIRQPSGKGLEWLAHIWWDDDKYYNPALKSRLTISKDTSKNQVFLKIANVDTADTVTYYCARITTEVGNYDVWGMGTTVTVSS VL: EIVLTQSPALMAASPGEKVTITCSVSSGITSNNLHWYQQKSETSPKPWIYGTSNLASGVPIRFSGSGSGTSYSLTISSMEAEDAATYYCQQWSSYPFTFGSGTKLEIK |  | 228 | 399 | 180
cAb029 (antibody, human IgG1, V domains shown, also called mAb029/cAb029) VH: QVTLKESGPGILQPSQTLSLTCSFSGFSLSTFGMGVGWIRQPSGKGLEWLAHIWWDDDEYYNPALKSRLTISKDTSKNQVFLKIANVDTADTATYYCTRIMLTTGYFDVWGTGTTVTVSS VL: EIVLTQSPALMAASPGEKVTITCTVSSGITSSNLHWYQQKSETSPKPWIYGTSNLASGVPVRFSGSGSGTSYSLTISSMEAEDAATYYCQQWSSYPFTFGSGTRLEIK |  | 166 | 114 | 119
cAb028 (antibody, human IgG1, V domains shown, also called mAb028/cAb028) VH: EVQLQQSGAELVRPGASVKLSCTASGFNIKNDYVHWVKQRPEQGLEWIGYIDPDNGDTEYASKFLGKATITADTSSNTAYLQLSSLTSEGTAVYYCTTDDTSYGMFACWGLGTLVTVSA VL: DVLMTQTPLSLPVSLGDQASISCRSSQSIVHSNGNTYLEWYLQKPGQSPKLLIYKVSNRFSGVPDRFSGSGSGTDFTLKISRVEAEDLGVYYCFQGSHVPWTFGGGTKLEIK |  | 344 | 230 | 132
cAb002 (antibody, human IgG1, V domains shown, also called mAb002/cAb002) VH: QVTLKESGPGILQPSQTLSLTCSFSGFSLSTFGLGVGWIRQPSGKGLEWLAQIWWDDDEYYNPALKSRLTISKDTSRNQVFLKIANVDTGDTATYFCARMGDTYWYFDVWGTGTTVAVSS VL: EIVVTQSPALMAVSPGEKVTITCSLSSGITSSNLHWYQQKSETSPKPWIYGTSNLASGVPVRFSGSGSKTSYSLTISSMEAEDAATYYCQQWSSYPFTFGSGTKLEIK |  | 274 | 524 | 100
cAb037 (antibody, human IgG1, V domains shown, also called mAb037/cAb037) VH: QVRLQQSGPELVKPGASVQMSCKASGYTFTDYYINWVKQRPGQGLEWIAWIFPGNGNTYFNENFKDKATLSVDKFSSTAFMLLSSLTSEDSAVYFCARATYDHGGYWYFDVWGTGTTVTVSS VL: QIVLSQSPAILSASPGEKVTMTCRASSSVSHIHWYQQKPGSSPKPWIYATSNLASGVPGRFSGSGSGTSYSLTVSRVEAEDAATYYCQHWNSFTFGGGTELELK |  | 165 | 147 | 150
cAb004 (antibody, human IgG1, V domains shown, also called mAb004/cAb004) VH: EVQLQQSGAELVRPGASVKLSCTASGFNIKDDYIQWVKQRPEQGLEWIGWIDPENGDTEYASKFQDKATITSDTSSNTAYLQLSSLTSEDTAVYYCAATTFYASNYGFAYWGQGTLVTVSA VL: DVVMTQTPLSLPVSLGDQASISCRSSQSLVHSNGNTYLHWYLQKPGQSPQLLIYKVSNRFSGVPDRFSGSGSGTDFTLKISRLEAEDLGVYFCSQSTHVPYTFGGGTKLEIK |  | 255 | 311 | 168
cAb042 (antibody, human IgG1, V domains shown, also called mAb042/cAb042) VH: QVQLQQSGPELVKSGASVKLSCKASGYTFTTYDINWMKQRPGQGLEWIGWIYPRDGSTKYNAKFKGKATLTEDTSSNTAFMELHSLTSEDSAVYFCARERIYDGSFDYWGQGTTLTVSS VL: DIVMTQSPSSLSVSAGEKVSMRCKSSQRLFNSRDQKNYLAWYQQKPGQPPKLLIYGASTRESGVPDRFTGSGSGTDFTLTISSVQAEDLAVYYCQNDHIYPLTFGAGTKLELK |  | 224 | 349 | 501
cAb006 (antibody, human IgG1, V domains shown, also called mAb006/cAb006) VH: QIQLQQSGAELMKPGASVKLSCKATGYTFTGHWIEWVKQRPGHGLEWVGEILPGSNKINYNEKFKGKATFTAETSSNTVYMQLSSLTTEDSAIYYCAGGGGPHWPFAFWGQGSLVTVSA VL: DIVLTQSPASLTVSLGQRATISCRASESVNVHGAHLMHWYQQKPGQPPKLLIYAASILESGVPARFSGSGSETDFTLNIHPVEEEDAATYFCQQTIEDPRTFGGGTKLEIK |  | 200 | 234 | 329
cAb046 (antibody, human IgG1, V domains shown, also called mAb046/cAb046) VH: EVQLVESGGGLVKPGGSLKLSCAASGFTFSSYAMSWVRQTPEKRLEWVATISEGGSYTYYPDNVKGRFTISRDNARNNLYLQMSHLKSEDTAMYLCVRDNPWFAYWGQGTLVTVST VL: DVLMTQTPLSLPVSLGDRASISCRSSQNIVHSNGNTYLEWFLQKPGQSPKLLIYKVSKRFSGVPDRFSGSGSGTDFTLKISRVEAEDLGVYYCFQGSHVPYTFGGGTKLEIK |  | 355 | 5570 | 346
